# Assay results as given in the supplement of paper PMC9170038.
# Test system: K4 kissing-loop RNA reporter
# Test: apparent KD of K4 kissing-loop reporter; higher = weaker reporter binding
# Conditions: Eterna round: R107
# Protocol: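 RNA-MaP round R107: designed RNA switches with theophylline, tryptophan, arginine or FMN aptamers are transcribed on-chip within common flanks. They are titrated with a labelled K4 kissing-loop RNA reporter in RNA-MaP buffer (100 mM Tris pH 7.5, 80 mM KCl, 4 mM MgCl2), without ligand or with the indicated ligand. Median apparent KD per design.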
# [1] = input ligand: theophylline 20 uM
# [2] = input ligand: tryptophan 2.4 mM
# 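Note: bound reporter read as fluorescence of individual clusters on recovered sequencing chips by microscopy, with normalized cluster intensities fitted with a binding model.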
Sequence,apparent KD of K4 kissing-loop reporter (input ligand: FMN 200 uM) [nM],apparent KD of K4 kissing-loop reporter (input ligand: arginine 13.2 mM) [nM],apparent KD of K4 kissing-loop reporter (input ligand: none) [nM],apparent KD of K4 kissing-loop reporter [1] [nM],apparent KD of K4 kissing-loop reporter [2] [nM]
UGGACUAGUGUGAGUGAUGUUCACUUCGAUACCAGCAGAGCGAUCUGCCCUUGGCAGCGAGUUAACUGCCGAAAGGCAAGGUCCA [Theo B SS t9a],457,478,477,457,382
GCCAGUGAUGUUGGCGAACCGACGCAUGCAGAGGAUAUUCGAUCUUGAAGAAGGCUGCAGCGUCAUCAUACGCAGUGAUGUUGCG [Same State FMN A GF 27],172,156,182,161,139
UGACAUUGCUCAGAUACCAGACCUGAGGAUCACCCAGGUGCCAAAACGUACUAAAUAAAGGUCCCUUGGCAGCUGAGCAAUGUCU [TheoBX 13],63.6,38.9,27.3,101,65.4
AAUUAAUACAGAAGGAGCGUGAAAUUAUCUAUUUUUUUUUUAGCUAGUGAUGUUAGCAUUUCACAGGUAGGUCGCUGUAUAUUUA [JR_SSArginiB_Sub009],148,142,166,149,138
GUAGGAUGAGGAGGAGGAUGAAUUACUGAAGGAGCGCAUAUUAAUGCAGGUAGGUCGCGGUAAAGAAGUAUAGUGAUGUUAUAUA [SSArgA.H],238,538,589,399,234
AAUAAAAUCACGGCCGCCACUGAUUAGCAUAUUAGGAGUGAUGUUUCUAUGACUAUAUAAUUGAACAGGACCGGGUGAAUAUUUA [#20 K4 Tryptophan B Exclusion],424,294,417,314,400
AGGUUUUGAUUAGGAUAUGCACUGACGACGAGAAUAUAGUGAUGUUAUAUAAUAGGAAUUAGUAGAGUAGAAGGGAUUGAGGUUU [SSFMNB.W],261,168,277,342,190
CGCGUGGGUUUGAGAGGGUUUGUGCGAAGUGAGGAUAUUUAGGGAGAAAGAAGGCACUAUAAAAUAUAGUGAUGUUAUAUAAGGG [SSFMNA.K],295,226,275,225,227
CGAGUGAUGUUCGUUUUUUACUCUGUUUGACAGGAUAUGCGGAAACGCAGAAGGGUCACCUUUGAGUUAGACGGAGUUAUUUUUU [Ex FMN A 21],409,287,322,309,290
UGUCAUUGGUCGGCCGCCACUAGACGGACAUAAAGUCUGUCAUAAAGAGUGAUGUUCUUAAAUAAUAGGACCGGGACCGAUGACU [TrypBS 29 #SwitchBubble #StaticStem],440,382,872,611,218
UGUGUUGUUUUGAUGUUUGUUGUAAGGUGGCAGGAUAUCGUAGAGGCGAGAAGGGCUUUUUUGCGUUAUGAGUGAUGUUUGUAGG [exeerzmullin],592,379,614,471,386
AGAUCUGUAACAGAUACCAGAGGACGAUGAUCGAACAGUGAUGUUAUCUGUUAGUCGUCGCUCCCUUGGCAGCUGUUACAGAUCA [Omei KL Theo B SS B v4],106,46.2,55.5,72.1,84.9
UGUCAUUGGUCGGCCGCCACUAGAAGGUCAAAGACCAAAGAGUGAUGUUCUUAGACGAAAGUCACUAGGACCGGGACCGAUGACU [TrypBS 7 #SwitchBubble #K4Middle],931,641,971,746,200
CUCGAGUGAUGUUCGUUUAUUUAUACAGAUACCAGUGAAUUUUAACACCCUUGGCAGCUGGUUGUAUCUUUGUUUUUUACACAAG [JR_Nu_ExcTheophyA_Sub024],191,297,211,338,154
UGGUAUAGUGAUGUUAUACCACUACCAGAUACCAGUGUAACAUUACGCCCUUGGCAGCUGAUCAGGGAACAUAUGGAGACAUAUG [Theo A Mod astro A#6],318,261,285,267,292
UUCAUCGUGGUUCGCGGGUGGUAUGAAAAGCGAGGACCGGUACGGCCGCCACUCGGUUCCGCUUGUUGAGUGAUGUUCAAUAUUU,207,281,251,350,229
